Experimental findings from PMC10142772 are described below.

For the assay, the target named is D. officinale MYB5 (DoMYB5), R2R3-MYB transcription factor (Dendrobium officinale).
Sequence of D. officinale MYB5 (DoMYB5), R2R3-MYB transcription factor (Dendrobium officinale) (main, as listed by the source): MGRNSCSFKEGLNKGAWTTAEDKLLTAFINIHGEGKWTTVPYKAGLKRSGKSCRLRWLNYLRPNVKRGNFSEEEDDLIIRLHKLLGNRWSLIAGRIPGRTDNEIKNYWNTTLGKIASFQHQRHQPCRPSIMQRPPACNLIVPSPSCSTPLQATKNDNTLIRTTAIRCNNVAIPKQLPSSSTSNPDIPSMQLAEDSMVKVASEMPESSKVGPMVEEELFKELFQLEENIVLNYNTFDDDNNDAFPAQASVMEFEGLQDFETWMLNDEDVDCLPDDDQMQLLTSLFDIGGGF

“D. officinale bHLH24 (DobHLH24), bHLH transcription factor (natural protein)” showed a dual-luciferase assay in tobacco leaves: activity of the DoCHS promoter on co-expression of DoMYB5 and DobHLH24, against the control group (times higher than the control group) of 4.8; a dual-luciferase assay in tobacco leaves: activity of the DoDFR promoter on co-expression of DoMYB5 and DobHLH24, against the control group (times higher than the control group) of 2.5.
